In patent US20060165681A1 (GlaxoSmithKline, published 2006):

T1: rat MAG-Fc fusion protein (R&D Systems; 538-MG) (rat; human, UniProt P07722 20-516, limits assumed)
T1 construct: Bought reagent coated on ELISA plates; not shown: human Fc
T1 sequence (looked up): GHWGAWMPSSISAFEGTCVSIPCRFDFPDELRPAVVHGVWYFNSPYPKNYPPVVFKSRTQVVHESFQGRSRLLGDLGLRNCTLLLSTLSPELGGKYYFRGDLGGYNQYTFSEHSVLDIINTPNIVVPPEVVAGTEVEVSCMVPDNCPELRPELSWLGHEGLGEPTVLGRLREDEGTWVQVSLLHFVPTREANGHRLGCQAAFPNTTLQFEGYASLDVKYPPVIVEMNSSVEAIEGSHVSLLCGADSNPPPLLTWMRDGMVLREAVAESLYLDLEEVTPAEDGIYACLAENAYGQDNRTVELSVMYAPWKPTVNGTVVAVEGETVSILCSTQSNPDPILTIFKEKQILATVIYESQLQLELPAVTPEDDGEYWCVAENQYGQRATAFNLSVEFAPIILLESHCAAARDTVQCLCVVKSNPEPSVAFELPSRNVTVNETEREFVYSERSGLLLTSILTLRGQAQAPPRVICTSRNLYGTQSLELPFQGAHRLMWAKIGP


Experiments:
[1] = target: T1, rat MAG-Fc fusion protein (R&D Systems; …); assay: ELISA on coated rat MAG-Fc, purified antibody
[2] = target: T1, rat MAG-Fc fusion protein (R&D Systems; …); assay: ELISA on coated rat MAG-Fc; purified antibody serially diluted from 5000 ng/ml
Protocol: 96-well Nunc Maxisorp plates were coated overnight at 4° C. with rat MAG-Fc fusion protein (2.5 μg/ml; R&D Systems; Cat.No. 538-MG) in PBS. Plates were washed twice with PBS containing Tween20 (0.1% v/v; PBST) and blocked with PBS containing BSA (1% w/v) for 1 h at room temperature (RT). Purified humanised antibody was adjusted to a starting concentration of 5 μg/ml in blocking buffer and then serial diluted. Antibody samples were incubated 1 h at RT and plates then washed 3× with PBST. Secondary antibody (Goat anti-human light chain specific-peroxidase conjugate; Sigma A-7164) was added diluted 1/5000 in blocking buffer and incubated for 1 h at RT. Wells were washed three times as above and binding detected by adding substrate (OPD tablets dissolved according to instructions; Sigma P-9187). Colour development was monitored and the reaction stopped using 3M H₂SO₄ Colour development was read at 490 nm.

Row | binding result [1] | binding result [2] | Binder
1 | binds |  | humanised anti-MAG antibody BVh1/CVl1 (antibody, V domains shown, The purified material has a mutated human IgG1 constant region (Kabat residues 248 and 250 changed to alanine) and a human kappa light chain; The antibody was also tested as culture supernatant on human MAG, and the constant region is not restated there; also called BVh1/CVl1 mutated IgG1) VH: QVQLVQSGSELKKPGASVKVSCKASGYTFTNYGMNWVRQAPGQGLEWMGWINTYTGEPTYADDFTGRFVFSLDTSVSTAYLQISSLKAEDTAVYYCARNPINYYGINYEGYVMDYWGQGTLVTVSS VL: not shown
2 |  | binds | humanised anti-MAG antibody BVh3/CVl3 (antibody, human IgG1, V domains shown, The antibody was also tested as culture supernatant on human MAG) VH: QVQLVQSGSELKKPGASVKVSCKASGYTFTNYGMNWVRQAPGQGLEWMGWINTYTGEPTYADDFTGRFVFSLDTSVSTAYLQISSLKAEDTATYFCARNPINYYGINYEGYVMDYWGQGTLVTVSS VL: DIVMTQSPDSLAVSLGERATINCKSSHSVLYSSNQKNYLAWYQQKPGQPPKLLIYWASTRESGVPDRFSGSGSGTDFTLTISSLHTEDVAVYYCHQYLSSLTFGQGTKLEIKR
